Laboratory results published in patent publication US20050221400A1.

Biological target: PSCA (prostate stem cell antigen), human, PSCA v.1 (human) (UniProt O43653)
Assay: FACS titration on SW780 cells, anti-hIgG-PE, Graphpad Prism sigmoidal dose-response fit

| Kd [nM] | Binder |
| --- | --- |
| 0.28 | Ha1-5.99 (antibody, IgG2, V domains shown) VH: QVHLQQWGAGLLKPSETLSLTCAVYGGSFSGYYWSWIRQPPGKGLEWIGEINHSGSTSYKPSLKSRVTVSVDTSKNQFSLKLSYVTAADTAVYYCARDRGDYGDFLFDYWGQGTLVTVSS VL: SPGERATLSCRASQSIGSTYLAWYQQKPGQAPRLLIYGASSRATGIPERFSGSGSGTDFTLTISGLEPEDFAVFYCQQCGSSPPTFGQGTKVEIKR |
| 0.23 | Ha1-4.37 (antibody, V domains shown) VH: PGALQESGPGLVRPSQTLSLTCTVSGGSISSGGTYYWIWIRQHPGKGLEWIGYIYYSGSTYYNPSLKSRVTISVDTSKNQFSLKLSSVTAADTAVYYCARDGITMVRGISGGMDVWGQGTTVTVSS VL: ASVGDRVTITCRASQSISSHLNWYQQKPGKAPKLLIYAASSLQSGVPSRFSGSGSGTDFTLSISSLQPEDFATYFCQQSYSIPRTFGQGTKVEITR |
